Measurements reported in publication PMC11565642, “ATP-Triggered Fe(CN)2CO Synthon Transfer from the Maturase HypCD to the Active Site of Apo-[NiFe]-Hydrogenase” (Journal of the American Chemical Society, 2024).

Columns and labels:
[1] = biological target: T1, HypD from Escherichia coli (Escherichia coli, UniProt P24192 1-373); assay: pull-down; Strep-Tactin affinity chromatography by the Strep-tag II on HypC from soluble extracts of aerobically cultivated E. coli co-producing HypC_(Strep) and HypD (apo: pTHypDC_(Strep); holo: pTHypDEFC_(Strep)); 4 °C; SDS-PAGE of the isolated complexes; settings: partners not purified
T1 construct: HypD, [4Fe-4S] cluster-containing hydrogenase maturation factor, Escherichia coli; Carries a [4Fe-4S] cluster; No tag is named for HypD in the complexes; also called EcHypD; HypD part of HypCS-D and HypCH-D
T1 sequence (looked up): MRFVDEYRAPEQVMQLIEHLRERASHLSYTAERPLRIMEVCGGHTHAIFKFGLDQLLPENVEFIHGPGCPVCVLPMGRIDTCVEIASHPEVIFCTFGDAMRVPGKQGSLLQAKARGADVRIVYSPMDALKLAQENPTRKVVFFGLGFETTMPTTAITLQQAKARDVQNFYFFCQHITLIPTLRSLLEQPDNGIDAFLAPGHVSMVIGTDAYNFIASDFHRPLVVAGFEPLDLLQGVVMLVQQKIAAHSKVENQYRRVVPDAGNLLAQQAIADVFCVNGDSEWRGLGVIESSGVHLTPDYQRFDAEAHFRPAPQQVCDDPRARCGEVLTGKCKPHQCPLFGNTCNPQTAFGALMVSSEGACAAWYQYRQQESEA

[2] = biological target: the molecule itself; assay: SEC; holo-HypCS-D after Strep-Tactin affinity chromatography, Superdex 200 Increase 10/300 GL; oligomers separated from the HypCD complex

binding result [1]: binds
B1: HypC_(Strep) (HypC from Escherichia coli with Strep-tag II C-terminally fused) (natural protein, UniProt P0AAM3 1-90, looked up)
chain: MCIGVPGQIRTIDGNQAKVDVCGIQRDVDLTLVGSCDENGQPRVGQWVLVHVGFAMSVINEAEARDTLDALQNMFDVEPDVGALLYGEEK
notes: HypC, hydrogenase maturation factor, Escherichia coli; residue numbers count with Met1 as 1; also called EcHypC; HypC part of apo-HypCS-D and holo-HypCS-D; source: holo form additionally by size-exclusion chromatography; not shown: Strep-tag II, C-terminal, kept
binding result [2]: binds
